Experimental data reported in article PMC6922461.

Experiments:
[1] = target: monovalent Strep-Tactin-SpyCatcherΔ; assay: SPR
[2] = target: trivalent Strep-Tactin-SpyCatcher; assay: SPR
Sequence of trivalent Strep-Tactin-SpyCatcher (P22629 other isoform, or with tags, fused parts or gaps, chain 1 of 2): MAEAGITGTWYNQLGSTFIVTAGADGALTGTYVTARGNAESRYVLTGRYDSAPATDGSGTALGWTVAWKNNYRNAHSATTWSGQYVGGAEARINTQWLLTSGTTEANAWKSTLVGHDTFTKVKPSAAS
Sequence of trivalent Strep-Tactin-SpyCatcher (P22629 other isoform, or with tags, fused parts or gaps, chain 2 of 2): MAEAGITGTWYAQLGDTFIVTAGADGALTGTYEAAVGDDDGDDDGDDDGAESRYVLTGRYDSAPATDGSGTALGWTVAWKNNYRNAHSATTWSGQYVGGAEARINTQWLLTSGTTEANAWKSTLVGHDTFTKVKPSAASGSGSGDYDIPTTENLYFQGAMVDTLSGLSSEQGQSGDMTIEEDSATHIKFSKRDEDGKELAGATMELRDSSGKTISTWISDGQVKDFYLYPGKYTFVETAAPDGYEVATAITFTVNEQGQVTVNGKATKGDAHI

Sequence of monovalent Strep-Tactin-SpyCatcherΔ (P22629 other isoform, or with tags, fused parts or gaps mutant, chain 1 of 2): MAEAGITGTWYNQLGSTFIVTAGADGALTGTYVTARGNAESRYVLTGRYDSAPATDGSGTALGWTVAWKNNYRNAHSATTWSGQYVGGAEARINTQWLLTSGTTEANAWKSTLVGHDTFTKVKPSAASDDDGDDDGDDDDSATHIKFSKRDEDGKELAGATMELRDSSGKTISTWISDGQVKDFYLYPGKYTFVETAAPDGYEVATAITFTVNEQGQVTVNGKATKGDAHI
Sequence of monovalent Strep-Tactin-SpyCatcherΔ (P22629 other isoform, or with tags, fused parts or gaps mutant, chain 2 of 2): as the sequence (P22629 other isoform, or with tags, fused parts or gaps, chain 1 of 2) above, with N12A, S16D, V33E, T34A, R36V counted along it

Substance | Kd [1] [µM] | Kd [2] [µM]
Strep-tag II–mTFP | 43 | –
Twin-Strep-tag–mTFP fusion protein | – | 6.8
